Literature values, collected in US20220089455A1, “METHOD FOR PRODUCING NANOPARTICLE HAVING METAL PARTICLE WHICH CONTAINS IRON OXIDE TO WHICH ONE OR MORE HYDROPHILIC LIGANDS ARE COORDINATION BONDED” (ASTELLAS PHARMA INC., priority 2018, published 2022).

Conditions: standard used for SEC comparison

B1: ovalbumin (protein, UniProt P01012 2-386, looked up)
Ovalbumin: GSIGAASMEFCFDVFKELKVHHANENIFYCPIAIMSALAMVYLGAKDSTRTQINKVVRFDKLPGFGDSIEAQCGTSVNVHSSLRDILNQITKPNDVYSFSLASRLYAEERYPILPEYLQCVKELYRGGLEPINFQTAADQARELINSWVESQTNGIIRNVLQPSSVDSQTAMVLVNAIVFKGLWEKAFKDEDTQAMPFRVTEQESKPVQMMYQIGLFRVASMASEKMKILELPFASGTMSMLVLLPDEVSGLEQLESIINFEKLTEWTSSNVMEERKIKVYLPRMKMEEKYNLTSVLMAMGITDVFSSSANLSGISSAESLKISQAVHAAHAEINEAGREVVGSAEAGVDAASVSEEFRADHPFLFCIKHIATNAVLFFGRCVSP
particle diameter of the standard: 6.1 nm
